Here are results for 1 compound from PMC11633826, “Site-specific π-clamp-mediated radiosynthesis of ^68Ga and ^18F PET radiopharmaceuticals” (Chemical Communications (Cambridge, England), 2024).

Bridge positions count the residues as written; N and C are the ends. Square brackets hold non-standard residues; d marks the D form. Peptide text beside a SMILES is read from it. * marks the point of attachment. X1 = O=C(O)CN1CCN(CC(=O)O)CCN(C(CCC(=O)NCCNC(=O)CCOCCOCCOCCOCCOCCC(=O)NCCSc2c(F)c(F)c(-c3c(F)c(F)c(*)c(F)c3F)c(F)c2F)C(=O)O)CC1

The format of data set [1] is in vitro ADME, human. The procedure: (§1) Stability of [18F]AlF-4: [18F]AlF-4 (3-5 MBq) was incubated at 37 °C in RPMI media (500 µL). Aliquots of the
(§2) solutions were sampled at 1, 2, 3, 4 and 5 h and diluted in H 2O for C18 RP-HPLC analysis. The diluted solutions
(§3) were centrifuged at 13,000 g for 5 min prior to analysis.
(§4) Stability of [68Ga]Ga-5: A sample of [68Ga]Ga-5 was added to serum (with or without 5 mM reduced glutathione),
(§5) in a ratio of one part radiolabelled solution to four parts of serum by volume and incubated at 37 °C. Aliquots
(§6) were taken for SE-HPLC analysis at t = 1 h, 2 h, 3 h, 4 h and 5 h.
(§7) Cell culture: The rat cancer cell line AR42J (cultured in RPMI -1640) was purchased from American Type Culture
(§8) Collection. Growth media were supplemented with 10 % foetal bovine serum (FBS), 100 units/mL penicillin , 100
(§9) µg/mL streptomycin, and 2 mM ʟ-glutamine. Cell lines were harvested twice weekly using a formulation of 0.25
(§10) % trypsin/0.53 mM EDTA in Phosphate Buffered Salt (PBS) Solution without calcium and magnesium, which was
then neutralised with the appropriate medium containing FBS. Cells were maintaine d in a humidified chamber
containing 5 % CO2 at 37 °C.
SSTR2 in vitro binding studies: [68Ga]Ga-5 was prepared as per above. The radioconjugate was then diluted with […]
(§11) by PBS wash (500 μL x 1). The radioactivity associated with each fraction were then counted using a gamma […]

Data set [2] in a line: in vivo. As to conditions: mouse. The method, then:
as §1, §2, §3, §4, §5, §6, §7, §8, §9, §10
then neutralised with the appropriate medium containing FBS. […]
as §11
isotropic voxel size. Images were co-registered and analysed using VivoQuant v.3.0 (Invicro). […]
(ROIs) were delineated for PET activity quantification in specific organs. Uptake in each ROI was expressed as a […]

The nature of data set [3]: in vivo. Conditions: BALB/c, mouse, iv, total radioactivity, Ex vivo biodistribution. The procedure:
page 9: mice under 0.8-1.5% isoflurane in oxygen anaesthesia and warmed to 37 °C for the duration of the experiment. Mice were administered [68Ga]Ga-5 (∼2-3 μg, ∼0.8-1.5 MBq) in 200 μL of PBS via intravenous tail injection. Dynamic PET scans were acquired for up to 1 h post injection, followed by a CT scan for anatomical visualisation (480 projections; helical acquisition; 55 kVp; 600 ms exposure time). PET/CT datasets were reconstructed using a Monte Carlo-based full-3D iterative algorithm (TeraTomo, Mediso) with 4 iterations, 6 subsets, and 0.4 mm isotropic voxel size. Images were co-registered and analysed using VivoQuant v.3.0 (Invicro). Regions of interest (ROIs) were delineated for PET activity quantification in specific organs. Uptake in each ROI was expressed as a percentage of injected dose per gram of tissue (% ID/g). Biodistribution studies: Following PET/CT imaging study, mice (n=4/group, one mouse from each group was not subjected to PET/CT imaging) were culled by cervical dislocation, organs were dissected, weighed, and gamma- counted along with standards prepared from the corresponding sample of injected radiolabelled conjugates. Conjugate uptake was calculated as a percentage of injected dose per gram (% ID/g) of tissue.

A further data set is described as follows: physchem. As to conditions: pH 7.4.

For orientation: tissue uptake means the percentage of the injected dose found per gram of tissue. The term logD denotes the decadic logarithm of the distribution of all forms, ionised or not, between an organic phase and buffer at a given pH. Low values mean lower lipophilicity, high ones higher lipophilicity. In the case of `C[C@@H](O)[C@H](NC(=O)[C@@H]1CSSC[C@H](NC(=O)[C@@H](Cc2ccccc2)NC(=O)[C@H](Cc2ccccc2)NC(=O)[C@@H]2CCCN2C(=O)[C@H](CSc2c(F)c(F)c(-c3c(F)c(F)c(SCCNC(=O)CCOCCOCCOCCOCCOCCC(=O)NCCNC(=O)CCC(C(=O)O)N4CCN(CC(=O)O)CCN(CC(=O)O)CC4)c(F)c3F)c(F)c2F)NC(=O)[C@@H](N)Cc2ccccc2)C(=O)N[C@@H](Cc2ccc(O)cc2)C(=O)N[C@H](Cc2c[nH]c3ccccc23)C(=O)N[C@@H](CCCCN)C(=O)N[C@@H]([C@@H](C)O)C(=O)N1)C(=O)O` (stereo partly shown) [[68Ga]Ga-5, [^68Ga]Ga-NODAGA-FCPF-TATE, metal not drawn] (H-FC(X1)PF[dF]CY[dW]KTCT-OH; disulfide 6-11), in data set [1], the “dissociation of the radiotracer in human serum” value is 2%. For the same compound, the tissue uptake at 1 h worked out at 13.8 ± 1.61 %ID/g in the data set “in vivo [2]” (female, BALB/c, iv, total radioactivity, PET 68Ga radioactivity remaining in circulation); 0.95 %ID/g in the data set “in vivo [3]” (Bone); 1.29 %ID/g in “in vivo [3]” (Brain); 6.04 %ID/g in “in vivo [3]” (Pituitary gland); 6.45 %ID/g in “in vivo [3]” (female, Adrenal glands); 27.2 %ID/g in “in vivo [3]” (female, Blood). The tissue uptake at 1 h in “in vivo [3]” (female, Heart) turned out to be 7.89 %ID/g; in “in vivo [3]” (female, Kidneys) it was 9.57 %ID/g; in “in vivo [3]” (female, Liver), 54.6 %ID/g; in “in vivo [3]” (female, Lower GI) it was 2.76 %ID/g; in “in vivo [3]” (female, Lungs), 10.6 %ID/g; in “in vivo [3]” (female, Muscle) it was 0.69 %ID/g. Further, the tissue uptake at 1 h was 3.49 %ID/g in “in vivo [3]” (female, Pancreas); 20.8 %ID/g in the data set “in vivo [3]” (female, Spleen); 2.17 %ID/g in “in vivo [3]” (female, Stomach); 5.64 %ID/g in the data set “in vivo [3]” (female, Upper GI). In addition, in the data set “in vivo [2]”, the “route of clearance from the blood pool” value was “predominantly hepatically”. In the data set “physchem”, the logD was -0.4 ± 0.03.
